Data on 6 molecules can be found in patent publication US8697062B2, “Compositions and methods for ribonuclease-based therapeutics” (Quintessence Biosciences, Inc., priority 2007, dated 2014).

As a reminder, the Kd is the constant that tells how readily two partners part at equilibrium.

Data set [1] relates to DU145 human prostate cancer cells. Briefly: xenograft model of prostate cancer (DU145) in nude mice. It counts as in vivo. How it is done: Prostate cancer cells (DU145) were implanted into the right rear flank of 5-6 week old male homozygous (nu/nu) nude mice (Harlan). Tumors were allowed to grow to an average size of ≧75 mm^3 before treatments were initiated. Animals of each tumor type, with the properly-sized tumors, were divided into treatment groups. All the test compounds were diluted in PBS (drug vehicle), and one set of animals treated with vehicle (PBS) on the schedule with greatest frequency in the current study served as the negative control. All RNase treatments in the xenograft model are administered by intraperitoneal injection. Treatment with all agents is ongoing throughout the entire experiment (e.g., a 6 week long experiment with 1×wk dosing results in 6 total doses). Tumors were measured twice weekly using calipers. Tumor volume (mm^3) was determined by using the equation 4. The percent tumor growth inhibition was calculated using equation 5.

In data set [2] the test system is A549 lung carcinoma cells. Briefly: xenograft model of non-small cell lung cancer (A549) in nude mice. It is filed as in vivo. The conditions noted are these: FIG. 9. The method, then:
Cells from a non-small cell lung cancer cell line (A549) were grown in nine T175 flasks in F12K media and 10% fetal calf serum until the cells were confluent. 4.5×10^6 cells ([…]) were injected into the right rear flank of 4-5 week old male homozygous (nu/nu) nude mice (Harlan, Madison Wis.). Tumors were allowed to grow to an average size of ≧75 mm^3 before treatments were initiated. Animals of each tumor type, with the properly-sized tumors, were divided into treatment groups, including one set of animals treated weekly with vehicle (phosphate buffered saline, PBS). The vehicle and the test agents were all administered by intraperitoneal injection. Each animal was weighed twice a week during treatment. The tumors were measured twice weekly using calipers. Tumor volume (mm^3) was determined by using the formula for an ellipsoid sphere:
[formula] The percent tumor growth inhibition was calculated using the formula:
[formula] […] The efficacy is similar to that of an approved cancer drug, cisplatin.

The target in data set [3] is T1, human RI (Homo sapiens, UniProt P13489).
T1 sequence (P13489 whole entry, looked up): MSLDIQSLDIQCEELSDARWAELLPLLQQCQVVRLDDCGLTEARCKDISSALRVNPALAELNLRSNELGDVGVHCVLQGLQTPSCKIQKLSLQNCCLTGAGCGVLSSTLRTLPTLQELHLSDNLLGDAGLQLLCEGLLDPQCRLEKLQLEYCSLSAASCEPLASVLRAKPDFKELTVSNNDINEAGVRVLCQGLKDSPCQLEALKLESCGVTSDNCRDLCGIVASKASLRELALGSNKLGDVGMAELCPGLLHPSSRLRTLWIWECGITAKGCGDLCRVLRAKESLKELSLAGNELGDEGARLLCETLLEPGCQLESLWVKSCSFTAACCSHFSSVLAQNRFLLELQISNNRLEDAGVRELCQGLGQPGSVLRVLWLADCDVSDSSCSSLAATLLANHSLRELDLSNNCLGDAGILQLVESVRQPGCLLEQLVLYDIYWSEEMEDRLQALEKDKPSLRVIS
Briefly: Kd^c | nM. The method, then:
Table printed on a drawing sheet, FIGURE 2
Head of the field: Kd^c | nM
Footnotes: ^aValues of Tm (± 2 °C) were determined in PBS by UV spectroscopy. The Tm values for G88R RNase and ONC in PBS are from Leland et al. (1998, Proc. Natl. Acad. Sci. 98:10407-10412). / ^bValues of kcat/KM (± SE) are for the catalysis of 6-FAM~dArU(dA)2~6-TAMRA cleavage at room temperature in 0.10 M MES-NaOH buffer (pH 6.0) containing NaCl (0.10 M) except for the kcat/KM (± SE) of ONC . The kcat/KM value for ONC is for the catalysis of 6-FAM~dArUdGdA~6-TAMRA cleavage at room temperature in 0.020 M MES-NaOH buffer (pH 6.0) containing NaCl (0.010 M). / ^cValues of Kd (± SE) are for the complex with human RI at room temperature. The Kd value for RNase A is from Lee et al. (1989, Biochem. 28:225-230). The Kd value for G88R RNase A is from Lavis et al. (2007, Anal. Biochem. 79:6775-6782). The Kd value for ONC is an estimate from Wu et al. (1993, J. Biol. Chem. 268:10686-10693). / ^dValues of IC50 (± SE) are for incorporation of [methyl-^3H]thymidine into the DNA of K-562 cells. […]
First copying reader's note: The table body is printed very coarsely, so many digits are uncertain; the mark ^h in the (kcat/KM)cyto column has no footnote on the sheet, and the IC50 footnote is lettered d.
Where the first naming reader finds the target: footnote: Values of Kd (± SE) are for the complex with human RI at room temperature.

Data set [4] deals with T2, hRI (Homo sapiens, UniProt P13489).
T2 sequence (P13489 1-461): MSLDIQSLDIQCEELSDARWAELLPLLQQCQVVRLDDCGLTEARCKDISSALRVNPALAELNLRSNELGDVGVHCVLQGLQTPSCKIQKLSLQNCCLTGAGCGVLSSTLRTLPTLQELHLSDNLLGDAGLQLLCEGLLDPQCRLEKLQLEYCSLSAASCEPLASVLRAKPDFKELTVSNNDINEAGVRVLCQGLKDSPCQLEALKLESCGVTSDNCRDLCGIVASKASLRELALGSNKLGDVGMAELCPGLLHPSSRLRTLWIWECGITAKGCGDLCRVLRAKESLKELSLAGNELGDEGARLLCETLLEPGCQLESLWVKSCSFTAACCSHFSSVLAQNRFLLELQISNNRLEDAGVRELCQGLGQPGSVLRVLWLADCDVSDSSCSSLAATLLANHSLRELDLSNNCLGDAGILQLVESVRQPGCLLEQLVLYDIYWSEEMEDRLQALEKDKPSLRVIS
The settings on record: value used as basis of the competition assay; Rutkoski et al., 2005; cited from earlier work.

For `CC(=O)O[C@@]12CO[C@@H]1C[C@H](O)[C@@]1(C)C(=O)[C@H](O)C3=C(C)[C@@H](OC(=O)[C@H](O)[C@@H](NC(=O)OC(C)(C)C)c4ccccc4)C[C@@](O)([C@@H](OC(=O)c4ccccc4)[C@H]21)C3(C)C` [docetaxel, reference compound], the tumor volume result in data set [1] (8 mg/kg weekly, compared to a control, FIG. 5) is listed as “decrease tumor volumes to similar levels”. Turning to `N.N.[Cl][Pt][Cl]` [cisplatin, reference compound], the “efficacy in reducing tumor volume” value in data set [2] (6 mg/kg weekly, compared with 60 kDa mPEG2 G89C RNase 1) is recorded as “similar”.

B1: 60 kDa mPEG2-G89C RNase 1: G89C RNase 1 modified with 60 kDa-mPEG2 maleimide (branched) (conjugate, UniProt P07998 29-156, looked up, variant G89C)
Ribonuclease pancreatic: KESRAKKFQRQHMDSDSSPSSSSTYCNQMMRRRNMTQGRCKPVNTFVHEPLVDVQNVCFQEKVTCKNGQGNCYKSNSSMHITDCRLTNCSRYPNCAYRTSPKERHIIVACEGSPYVPVHFDASVEDST
modifications: 60 kDa branched mPEG2 maleimide
B1: the tumor volume entry in data set [2] (75 mg/kg weekly, intraperitoneal, versus control) is “decreases tumor volume”.

B2: 20 kDa mPEG2-G88C RNase A: G88C RNase A modified with 20 kDa-mPEG2 maleimide (branched) (conjugate, UniProt P61823 27-150, looked up, variant G88C)
Ribonuclease pancreatic: KETAAAKFERQHMDSSTSAASSSNYCNQMMKSRNLTKDRCKPVNTFVHESLADVQAVCSQKNVACKNGQTNCYQSYSTMSITDCRETCSSKYPNCAYKTTQANKHIIVACEGNPYVPVHFDASV
modifications: 20 kDa branched mPEG2 maleimide
In the case of B2, in data set [3], the Kd was 37 ± 2.4 nM. Also, in data set [1] (75 mg/kg, 1 time per week, intraperitoneal, FIG. 5), the tumor volume result is recorded as “reduce tumor volumes”.

B3: fluorophore-labeled G88R variant of RNase A: fluorophore-labeled G88R variant of RNase A used as probe in the ribonuclease-inhibitor binding assay (conjugate, UniProt P61823 27-150, looked up, variant G88R)
Ribonuclease pancreatic: KETAAAKFERQHMDSSTSAASSSNYCNQMMKSRNLTKDRCKPVNTFVHESLADVQAVCSQKNVACKNGQTNCYQSYSTMSITDCRETRSSKYPNCAYKTTQANKHIIVACEGNPYVPVHFDASV
modifications: fluorophore label
Turning to B3, in data set [4], the Kd was 1.4 nM.

B4: 2 kDa mPEG-G88C RNase A: G88C RNase A modified with 2 kDa-mPEG maleimide (conjugate, UniProt P61823 27-150, looked up, variant G88C)
Ribonuclease pancreatic: KETAAAKFERQHMDSSTSAASSSNYCNQMMKSRNLTKDRCKPVNTFVHESLADVQAVCSQKNVACKNGQTNCYQSYSTMSITDCRETCSSKYPNCAYKTTQANKHIIVACEGNPYVPVHFDASV
modifications: 2 kDa mPEG maleimide
notes: G88C RNase A modified with 2 kDa-mPEG maleimide
Regarding B4, the “toxicity of the treatment as reflected by average body weight” value in data set [1] (15 mg/kg twice weekly, intraperitoneal, FIG. 4B) is on record as “lack of toxicity”. In addition, the tumor volume result in data set [1] (15 mg/kg, 2 times per week, intraperitoneal, FIG. 4) is reported as “reduction in tumor volume over time”; in data set [1] (15 mg/kg, 2 times per week, intraperitoneal, FIG. 4, listed as 2 kDa mPEG G88C RNase A) it was “reduce tumor volumes”.
